Measurements from US5451369A, “Bacteriocidal surfaces and articles with attached bacteriocin” (The State of Oregon Acting By and Through The State Board …, priority 1993, dated 1995).
Where no end group is shown, it is not given here.

Columns and labels:
[1] = system: gram-positive spoilage and pathogenic bacteria; conditions: various foods (dairy, meats and others); cited from earlier work
[2] = system: Pediococcus pentosaceus strain FBB61-2; test: Desorption of nisin from wafers by rinsing, followed by agar-well diffusion assay; type: cell-based
Method: Nisin was adsorbed to hydrophilic and hydrophobic silicon wafers as described in example 1. We then attempted to desorb nisin from the wafers by placing 50 μL of 0.01M phosphate buffer (pH 6.0) containing 1% polyoxyethylene sorbitan (Tween 80) on each wafer and "agitating" the droplet over the entire wafer surface using a pipette tip. The 50 μL droplet was then transferred to 5.6-mm diameter wells that had been made in seeded agar. As controls, we also attempted to desorb nisin from nisin-coated wafers using the phosphate buffer without Tween 80.
In FIG. 3, the activity of desorbed nisin (from hydrophilic surfaces) is seen as inhibition zones in the agar-well diffusion assay. The amount of recovered nisin roughly corresponded to the relative mass of nisin initially adsorbed to the wafers, similar to the previously described relationships shown in FIGS. 1 and 2. The only exception was the inhibition zone of well 10, wherein the unusually small diameter of the inhibition zone resulted from most of the desorbed nisin being lost during manipulations.
It should be noted that the amount of nisin that became adsorbed onto the wafer surfaces was an amount sufficient for inhibition of susceptible bacteria. Commonly, about 100 Units/g are used in food products to prevent the outgrowth of gram-positive bacterial spores and vegetative cells. […]

[3] = high-potency grade from Aplin and Barrett Ltd.; cited from earlier work
[4] = system: Pediococcus pentosaceus strain FBB61-2; test: Bioassay of adsorbed nisin: wafers placed face down on seeded MRS agar, inhibition zones; type: cell-based; conditions: hydrophilic wafers with nisin adsorbed from 0.1 to 1.0 mg/mL solutions, 4° C. 24 hours then 37° C.
Method: The activity of adsorbed nisin was evaluated by a bioassay performed as follows: Petri dishes (150×25 mm) containing MRS agar (Difco, Detroit, Mich.) were seeded with 0.1% v/v of a standardized overnight culture of Pediococcus pentosaceus strain FBB61-2 bacteria. Silicon wafers having hydrophilic surfaces were prepared as described above. Such wafers were prepared with and without adsorbed nisin. Wafers were placed face down directly onto the seeded agar surfaces. The Petri dishes were then incubated at 4° C. for 24 hours, then incubated at 37° C.
Referring to FIG. 2, the silicon wafers numbered 1-10 were subjected to adsorption of nisin from 0.1 to 1.0 mg/mL nisin solutions, respectively (in 0.1 mg/mL increments). […] Qualitatively, it can be seen in FIG. 2 that the amount of nisin antimicrobial activity associated with the nisin-coated wafers (as indicated by the diameters of the respective inhibition zones) corresponds to the mass of nisin that actually adsorbed to the respective wafer as shown in FIG. 1; i.e., the smallest inhibition zone corresponded with the smallest adsorbed mass of nisin.

[5] = cited from earlier work
[6] = Nisin adsorption to silicon wafers measured by ellipsometry (hydrophilic surface); type: physicochemical; conditions: hydrophilic silicon wafer; nisin concentration range 0.1 to 1.0 mg/mL
From the text: (§1) This example is an investigation of the binding ability of nisin on hydrophilic surfaces and on such surfaces made strongly hydrophobic by silanization. As representative hydrophilic surfaces, we selected monocrystalline silicon because this material is homogeneous, has substantially no pores or surface cavities, and has optical properties amenable to analysis using a laser beam.
(§2) Optically flat, monocrystalline silicon wafers (Wacker Siltronic Corp., Portland, Oreg.) having 1-0-0 orientation and a resistivity of 0.1 to 0.16 ohm.cm were cut into 1×2 cm wafers using a tungsten knife. The wafer surfaces were polished to a mirror finish.
A first quantity of wafers was made hydrophilic by oxidation wherein the wafers were immersed in a mixture of NH4 OH:H2 O2 :H2 O (1:1:5) at 80° C. for 15 minutes. The wafers were then rinsed using distilled deionized water followed by an immersion in HCl:H2 O2 :H2 O (1:1:5) for 15 minutes at 80° C. […]
Hydrophilicity and hydrophobicity were confirmed by contact angle analysis according to McGuire, J. Food Eng. […] In brief, hydrophobicity was determined by measuring the nondispersive component of the work Wa^p required to remove water from a surface, wherein Wa^p is defined according to equation (1) in said McGuire reference. This value was gained using contact-angle methods, and all food-contact surfaces can be analyzed in this way. […]

[7] = Nisin adsorption to silicon wafers measured by ellipsometry (hydrophobic, silanized surface); type: physicochemical
From the text: as §1, §2
A second quantity of wafers was made hydrophobic by silanization with dichlorodimethylsilane according to Jonsson et al., J. Colloid Interface Sci. 90:148-163 (1982) .
Hydrophilicity and hydrophobicity were confirmed by contact angle analysis according to McGuire, J. Food Eng. 12:239-247 (1990), incorporated herein by reference. In brief, hydrophobicity was determined by measuring the nondispersive component of the work Wa^p required to remove water from a surface, wherein Wa^p is defined according to equation (1) in said McGuire reference. This value was gained using contact-angle methods, and all food-contact surfaces can be analyzed in this way. […] A low value indicates strong hydrophobicity and a high value indicates strong hydrophilicity. […]

Substance | control of gram-positive bacteria in foods [1] | desorption by rinsing with phosphate buffer without Tween 80 ([2]; 0.01M phosphate buffer pH 6.0, no Tween 80) | desorption by phosphate buffer containing Tween 80 ([2]; 0.01M phosphate buffer pH 6.0 with 1% Tween 80) | nominal nisin activity [3] | diameter of inhibition zone around nisin-containing wafers [4] | period of retained bacteriocidal activity ([5]; ambient temperatures (0°-40° C.)) | stability of activity at pH 11 ([5]; pH 11) | potency of purified dry powder on storage ([5]; refrigeration storage) | adsorption plateau on hydrophilic surface [6] | reversal of adsorption in more dilute solution ([7]; hydrophilic and hydrophobic wafers, 12-hour post-adsorption exposure to buffer (FIG. 1 circles)) | upper limit (plateau) of adsorbed mass of nisin ([7]; hydrophobic (silanized) silicon wafer, pH 6.0 phosphate buffer, 8 hours contact, consistent with a monolayer)
Pediocin AcH (KYYGNGVTCGKHSCSVDWGKATTCIINNGAMAWATGGHQGNHKC; ends and bridges not checked; cysteine pairing not given here; UniProt P29430 19-62, looked up) [wide-spectrum bacteriocin produced by lactic-acid bacteria, first identified in 1984] | efficacious in controlling a wide range of spoilage and pathogenic gram-positive bacteria | – | – | – | – | – | – | – | – | – | –
Pediocin PA1 (KYYGNGVTCGKHSCSVDWGKATTCIINNGAMAWATGGHQGNHKC; ends and bridges not checked; cysteine pairing not given here; UniProt P29430 19-62, looked up) [wide-spectrum bacteriocin produced by lactic-acid bacteria] | found to control gram-positive bacterial populations | – | – | – | – | – | – | – | – | – | –
nisin (ITSISLCTPGCKTGALMGCNMKTATCHCSIHVSK; ends and bridges not checked; also: five thioether crosslinks (ring bridges), places not given here; UniProt P13068 24-57, looked up) | effective in preserving these foods | resistant to desorption | able to desorb nisin | 45.5×10^6 Units/g | generally proportional to the log10 concentration of the nisin solution | 16-24 months | can be lost rapidly | retains its potency indefinitely | did not attain a plateau value | does not appear to reverse | about 0.36 mg/cm^2
